Laboratory results reported in US20100278929A1.
Substitutions are numbered along the chain they refer to.

B1: A17d4(1) monoclonal antibody (antibody, V domains shown)
VH: QVTLRESGPALVKPTQTLTLTCTFSGFSLSTAGMSVGWIRQPPGKALEWLADIWWDGKKSYNPSLKDRLTISKDTSKNQVVLKVTNMDPADTATYYCARDMIFNFYFDVWGQGTTVTVSS
VL: DIQMTQSPSTLSASVGDRVTITCLPSSRVGYMHWYQQKPGKAPKLLIYDTMYQSSGVPSRFSGSGSGTEFTLTISSLQPDDFATYYCFQGSGYPFTFGGGTKVEIK
B2: A4B4 Fab fragment (Fab, V domains shown)
VH: B1 VH with G57D, S60H
VL: B1 VL with L24S, P25A, M51F, Y52F, Q53L, S54D
B3: A13a11 Fab fragment (Fab, V domains shown)
VH: B1 VH with G57D, S60H, F105W
VL: B1 VL with L24S, M51Y, Y52R, Q53H
B4: A1e9 monoclonal antibody (antibody, V domains shown)
VH: B1 VH with S60H, F105W
VL: B1 VL with L24S, P25L, M51F, Y52K, Q53L
B5: A4B4 monoclonal antibody (antibody, V domains shown)
VH: B1 VH with G57D, S60H
VL: B1 VL with L24S, P25A, M51F, Y52F, Q53L, S54D
B6: A12a6 monoclonal antibody (antibody, V domains shown)
VH: B1 VH with S60D
VL: B1 VL with L24S, P25A, M51F, Y52K, Q53L
B7: A8c7 monoclonal antibody (antibody, V domains shown)
VH: B1 VH with G57D, F105W
VL: B1 VL with L24S, M51R
B8: A1h5 Fab fragment (Fab, V domains shown)
VH: B1 VH with S60H, F105W
VL: B1 VL with L24S, P25L, R28S, M51F, Y52F, Q53H, S54R
B9: A17d4(1) Fab fragment (Fab, V domains shown)
VH: B1 VH
VL: B1 VL
B10: A1e9 Fab fragment (Fab, V domains shown)
VH: B1 VH with S60H, F105W
VL: B1 VL with L24S, P25L, M51F, Y52K, Q53L
B11: A13c4 monoclonal antibody (antibody, V domains shown)
VH: B1 VH
VL: B1 VL with L24S, P25L
B12: P12f2 Fab fragment (Fab, V domains shown)
VH: B1 VH with A32P, G57D, S60H
VL: B1 VL with L24S, P25L, M51F, Q53L
B13: P12f4 Fab fragment (Fab, V domains shown)
VH: B1 VH with A32P, S60H
VL: B1 VL with L24S, P25L, M51R, Y52G, Q53L, S54P
B14: P11d4 monoclonal antibody (antibody, V domains shown)
VH: B1 VH with A32P, S60H, F105W
VL: B1 VL with L24S, Y52R, Q53L, S54A
B15: A8c7 Fab fragment (Fab, V domains shown)
VH: B1 VH with G57D, F105W
VL: B1 VL with L24S, M51R
B16: P12f4 monoclonal antibody (antibody, V domains shown)
VH: B1 VH with A32P, S60H
VL: B1 VL with L24S, P25L, M51R, Y52G, Q53L, S54P
B17: P12f2 monoclonal antibody (antibody, V domains shown)
VH: B1 VH with A32P, G57D, S60H
VL: B1 VL with L24S, P25L, M51F, Q53L
B18: A12a6 Fab fragment (Fab, V domains shown)
VH: B1 VH with S60D
VL: B1 VL with L24S, P25A, M51F, Y52K, Q53L
B19: A13c4 Fab fragment (Fab, V domains shown)
VH: B1 VH
VL: B1 VL with L24S, P25L

target: RSV (Long strain) F protein on infectious virus (respiratory syncytial virus (Long strain)) (UniProt P12568); assay: cell-based or functional assay
Sequence (P12568 26-574): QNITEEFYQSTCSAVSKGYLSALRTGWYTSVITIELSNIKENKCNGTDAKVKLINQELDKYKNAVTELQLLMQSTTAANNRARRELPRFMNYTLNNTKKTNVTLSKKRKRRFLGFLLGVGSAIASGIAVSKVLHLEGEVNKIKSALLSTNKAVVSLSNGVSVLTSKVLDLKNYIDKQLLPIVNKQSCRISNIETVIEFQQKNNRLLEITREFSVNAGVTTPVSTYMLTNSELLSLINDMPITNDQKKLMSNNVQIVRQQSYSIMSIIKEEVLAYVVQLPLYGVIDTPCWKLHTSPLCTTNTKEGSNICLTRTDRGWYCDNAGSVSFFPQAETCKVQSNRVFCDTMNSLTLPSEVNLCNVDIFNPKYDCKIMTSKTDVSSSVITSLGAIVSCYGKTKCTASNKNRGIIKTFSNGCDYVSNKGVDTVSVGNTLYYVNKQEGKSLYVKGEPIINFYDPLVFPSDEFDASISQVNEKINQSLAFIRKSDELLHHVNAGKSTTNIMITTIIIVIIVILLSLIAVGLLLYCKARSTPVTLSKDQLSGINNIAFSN

Point of comparison: B15, Fold Difference (Control IC50), against palivizumab 34 fold. Against it:
- B1 — lower, 15 fold
- B2 — lower, 13 fold
- B3 — lower, 5 fold
- B4 — lower, 8 fold
- B5 — higher, 35 fold
- B6 — lower, 15 fold
- B7 — lower, 14 fold
- B8 — lower, 3 fold
- B9 — lower, 31 fold
- B10 — lower, 4 fold
- B11 — lower, 14 fold
- B12 — lower, 16 fold
- B13 — lower, 15 fold
- B14 — lower, 19 fold
- B16 — lower, 23 fold
- B17 — lower, 24 fold
- B18 — lower, 17 fold
- B19 — lower, 21 fold

Point of comparison: B12, Fold Difference (Curve IC50), against palivizumab 11 fold. Against it:
- B1 — higher, 13 fold
- B2 — the same, 11 fold
- B3 — lower, 4 fold
- B4 — lower, 7 fold
- B5 — higher, 27 fold
- B6 — higher, 13 fold
- B7 — higher, 13 fold
- B8 — lower, 2 fold
- B9 — higher, 25 fold
- B10 — lower, 3 fold
- B11 — higher, 12 fold
- B13 — lower, 10 fold
- B14 — higher, 21 fold
- B15 — lower, 3 fold
- B16 — higher, 19 fold
- B17 — higher, 20 fold
- B18 — higher, 16 fold
- B19 — higher, 17 fold
